According to article PMC5414417:

Tests used:
[1] = molecular target: TMEM24 SMP domain (residues 76 to 260) (human) (UniProt O14523); experiment: SEC
[2] = molecular target: 3xFLAG-TMEM24(76-260) (human) (UniProt O14523); experiment: native MS

stoichiometry N [1]	stoichiometry N [2]	Substance
2		TMEM24 SMP domain (residues 76 to 260) (from UniProt O14523 76-260) (domain or fragment)
	2	3xFLAG-TMEM24(76-260) (from UniProt O14523 76-260) (domain or fragment)
